In general, Km refers to the concentration of substrate that gives half-maximal velocity.

Substrate in this data set: Nc1ncnc2c1ncn2[C@@H]1O[C@H](COP(=O)(O)OP(=O)(O)OP(=O)(O)O)[C@@H](O)[C@H]1O
Nature of the data set: Inhibition constant of the ATP derivative / Km for ATP, p42^mapk assay. The class given is biochemical. Conditions: other: p42^mapk; pH 7.4. An excerpt:
[γ-^32 P] ATP was synthesized according to the procedure set forth in Johnson et al., Advances in Cyclic Nucleotide Research, 10:135-167 (1979). The catalytic subunit of cyclic-AMP-dependent protein kinase was purchased from Promega. p60^c-arc was obtained from the Department of Microbiology, University of Virginia. Recombinant p42^mapk was purified as described in Haystead et al., (1992) FEBS Lett., 306:17-22. STE7 antibody was obtained from the University of Vancouver, Canada.
The 42-kDa MAP kinase (p42^mapk) and MAPKK were assayed as described previously (Haystead et al. (1992) FEBS. Lett., 306:17-22). The cyclic-A kinase assays (30 μl) included 1 μg cyclic-A kinase, 2 mM Kemptide, 50 mM Hepes, pH 7.4, 1 mM dithiothreitol, 200 μM ATP, 5 mM MgCl2. […]
In order to assess the effectiveness of adenosine 5'-(γ-4-aminophenyl)triphosphate as an affinity ligand for protein kinases, the inhibition constants (Ki) of the derivative were determined for four different protein kinases, namely, p42^mapk, cyclic-A kinase, MAPKK and p60^c-arc (Table 1). […] This also facilitated comparisons for the relative binding constants determined with other ATP analogs (Flockhart et al. (1984) Eur. J. Biochem., 140:289-295; Hoppe et al. (1972) Eur. J. Biochem., 80:369-372; Taylor et al. (1990) Peptides and Protein Phosphorylation (Kemp et al.) pp 2-32, CRC Press).

B1: p42^mapk (Mus musculus) (protein)
chain: MAAAAAAGPEMVRGQVFDVGPRYTNLSYIGEGAYGMVCSAYDNLNKVRVAIKKISPFEHQTYCQRTLREIKILLRFRHENIIGINDIIRAPTIEQMKDVYIVQDLMETDLYKLLKTQHLSNDHICYFLYQILRGLKYIHSANVLHRDLKPSNLLLNTTCDLKICDFGLARVADPDHDHTGFLTEYVATRWYRAPEIMLNSKGYTKSIDIWSVGCILAEMLSNRPIFPGKHYLDQLNHILGILGSPSQEDLNCIINLKARNYLLSLPHKNKVPWNRLFPNADSKALDLLDKMLTFNPHKRIEVEQALAHPYLEQYYDPSDEPIAEAPFKFDMELDDLPKEKLKELIFEETARFQPGYRS
notes: made in house
On to B1, for which the Michaelis-Menten constant (Km) worked out at 7.5 ± 0.71 µM.

The values are drawn from patent US5536822A, “γ-phosphate linked adenosine 5' triphosphate sepharose” (University of Virginia Alumni Patents Foundation, priority 1994, dated 1996).
